Results taken from US6602854B1, “Branched multimeric Apo A-I agonist compounds” (priority 1997, dated 2003).
Where two headings read alike, the source gives them in different places.

Key:
isolated human HDL = assay: Formation of pre-β like particles: displacement of human ApoA-I from isolated human HDL; format: binding; conditions: increasing peptide:HDL mass ratio
Experimental: Human HDL was isolated by KBr density ultra centrifugation at density d=1.21 g/ml to obtain top fraction followed by Superose 6 gel filtration chromatography to separate HDL from other lipoproteins. Isolated HDL was adjusted to a final concentration of 1.0 mg/ml with physiological saline based on protein content determined by Bradford protein assay. An aliquot of 300 μl was removed from the isolated HDL preparation and incubated with 100 μl ^14C-labeled peptide 4 (0.2-1.0 μg/μl) for two hours at 37° C. Five separate incubations were analyzed including a blank containing 100 μl physiological saline and four dilutions of ^14C-labeled peptide 4: (i) 0.20 μg/μl peptide:HDL ratio=1:15; (ii) 0.30 μg/μl peptide:HDL ratio=1:10; (iii) […] peptide:HDL ratio=1:5; and (iv) 1.00 μg/μl peptide:HDL ratio=1:3. Following the two hour incubation, a 200 μl aliquot of the sample (total volume=400 μl) was loaded onto a Superose 6 gel filtration column for lipoprotein separation and analysis, and 100 μl was used to determine total radioactivity loaded. The conditions for all FPLC chromatographies were as described in Section 9.4, infra.

HDL in human plasma = conditions: for Radioactivity in 300 μl: 50 μl value multiplied by 6
Experimental: Human plasma (2 ml) was incubated with 20, 40, 60, 80, and 100 μg of ^14C-labeled peptide peptide 4 for 2 hr. at 37° C. The lipoproteins were separated by adjusting the density to 1.21 g/ml and centrifugation in TLA 100.3 rotor at 100,000 rpm (300,000 g) for 36 hr. at 4° C. The top 900 μl (in 300 μl fractions) was taken for the analysis. 50 μl from each 300 μl fraction was counted for radioactivity and 200 μl from each fraction was analyzed by FPLC (Superose 6/Superose 12 combination column).

Sequence: PVLDLFRELLNELLEALKQKLK [peptide 4]
- displacement of native ApoA-I from HDL (in words) (isolated human HDL): a displacement of ApoA-I was observed which increased with increasing concentration of peptide
- Radioactivity in 50 μl (HDL in human plasma; 20 μg peptide in 2 ml human plasma, Fraction No. 1): 1407 cpm
- Recovery (HDL in human plasma; 20 μg peptide, Fraction No. 1): 71.6%
- Radioactivity in 300 μl (HDL in human plasma; 20 μg peptide, Fraction No. 1): 8442 cpm
- Radioactivity in 50 μl (HDL in human plasma; 20 μg peptide, Fraction No. 2): 405 cpm
- Recovery (HDL in human plasma; 20 μg peptide, Fraction No. 2): 20.6%
- Radioactivity in 300 μl (HDL in human plasma; 20 μg peptide, Fraction No. 2): 2430 cpm
- Radioactivity in 50 μl (HDL in human plasma; 20 μg peptide, Fraction No. 3): 152 cpm
- Recovery (HDL in human plasma; 20 μg peptide, Fraction No. 3): 7.7%
- Radioactivity in 300 μl (HDL in human plasma; 20 μg peptide, Fraction No. 3): 912 cpm
- Radioactivity in 50 μl (HDL in human plasma; 40 μg peptide, Fraction No. 1): 2538 cpm
- Recovery (HDL in human plasma; 40 μg peptide, Fraction No. 1): 70.4%
- Radioactivity in 300 μl (HDL in human plasma; 40 μg peptide, Fraction No. 1): 15228 cpm
- Radioactivity in 50 μl (HDL in human plasma; 40 μg peptide, Fraction No. 2): 721 cpm
- Recovery (HDL in human plasma; 40 μg peptide, Fraction No. 2): 20%
- Radioactivity in 300 μl (HDL in human plasma; 40 μg peptide, Fraction No. 2): 4326 cpm
- Radioactivity in 50 μl (HDL in human plasma; 40 μg peptide, Fraction No. 3): 347 cpm
- Recovery (HDL in human plasma; 40 μg peptide, Fraction No. 3): 9.6%
- Radioactivity in 300 μl (HDL in human plasma; 40 μg peptide, Fraction No. 3): 2082 cpm
- Radioactivity in 50 μl (HDL in human plasma; 60 μg peptide, Fraction No. 1): 4492 cpm
- Recovery (HDL in human plasma; 60 μg peptide, Fraction No. 1): 75.5%
- Radioactivity in 300 μl (HDL in human plasma; 60 μg peptide, Fraction No. 1): 26952 cpm
- Radioactivity in 50 μl (HDL in human plasma; 60 μg peptide, Fraction No. 2): 1107 cpm
- Recovery (HDL in human plasma; 60 μg peptide, Fraction No. 2): 18.6%
- Radioactivity in 300 μl (HDL in human plasma; 60 μg peptide, Fraction No. 2): 6642 cpm
- Radioactivity in 50 μl (HDL in human plasma; 60 μg peptide, Fraction No. 3): 354 cpm
- Recovery (HDL in human plasma; 60 μg peptide, Fraction No. 3): 5.9%
- Radioactivity in 300 μl (HDL in human plasma; 60 μg peptide, Fraction No. 3): 2124 cpm
- Radioactivity in 50 μl (HDL in human plasma; 80 μg peptide, Fraction No. 1): 4715 cpm
- Recovery (HDL in human plasma; 80 μg peptide, Fraction No. 1): 60%
- Radioactivity in 300 μl (HDL in human plasma; 80 μg peptide, Fraction No. 1): 28290 cpm
- Radioactivity in 50 μl (HDL in human plasma; 80 μg peptide, Fraction No. 2): 2251 cpm
- Recovery (HDL in human plasma; 80 μg peptide, Fraction No. 2): 28.6%
- Radioactivity in 300 μl (HDL in human plasma; 80 μg peptide, Fraction No. 2): 13506 cpm
- Radioactivity in 50 μl (HDL in human plasma; 80 μg peptide, Fraction No. 3): 851 cpm
- Recovery (HDL in human plasma; 80 μg peptide, Fraction No. 3): 11.3%
- Radioactivity in 300 μl (HDL in human plasma; 80 μg peptide, Fraction No. 3): 5346 cpm
- Radioactivity in 50 μl (HDL in human plasma; 100 μg peptide, Fraction No. 1): 5424 cpm
- Recovery (HDL in human plasma; 100 μg peptide, Fraction No. 1): 67.5%
- Radioactivity in 300 μl (HDL in human plasma; 100 μg peptide, Fraction No. 1): 32544 cpm
- Radioactivity in 50 μl (HDL in human plasma; 100 μg peptide, Fraction No. 2): 1708 cpm
- Recovery (HDL in human plasma; 100 μg peptide, Fraction No. 2): 21.2%
- Radioactivity in 300 μl (HDL in human plasma; 100 μg peptide, Fraction No. 2): 10248 cpm
- Radioactivity in 50 μl (HDL in human plasma; 100 μg peptide, Fraction No. 3): 907 cpm
- Recovery (HDL in human plasma; 100 μg peptide, Fraction No. 3): 11.3%
- Radioactivity in 300 μl (HDL in human plasma; 100 μg peptide, Fraction No. 3): 5442 cpm
